Measurements reported in patent US10001489B2, “Method for constructing a novel affinity peptide library for binding immunoglobulin G based on a protein affinity model of protein A” (TIANJIN UNIVERSITY, priority 2012, dated 2018).
Where no end group is shown, it is not given here.

Experiments:
[1] = system: hIgG; assay: Affinity chromatography, pulse injection of hIgG on peptide-coupled Thiopropyl Sepharose 6B column; assay type: binding, human
Description: (§1) Peptide powders purchased from GL Biochem Ltd. (Shanghai, China) had been purified by high performance liquid chromatography (HPLC) with a purity of 96.36%. 1 g of resin (Thiopropyl Sepharose 6B, purchased from GE Healthcare) was weighed and washed for 15 min with 200 mL of deionized water in a buchner funnel. After being filtered and getting rid of water, two aliquots of 1.0 g of drained gel were transferred into two 25-mL Erlenmeyer flasks, respectively. Then 6 mL and 10.7 mL of linking buffer (0.1 M Tris-HCl, pH 7.5, 0.5 M NaCl and 1 mM EDTA) were added to the two flasks respectively, to fully pre-equilibrate the gels. […] The peptides were fully mixed with the gels in corresponding flasks and initial peptide concentrations of 1.0 mg/mL were obtained. The mixtures were reacting in a shaking bath at a rate of 180 rpm, at 25° C. for 2 h. 500 μL of supernatant was acquired each hour for analyzing the residue peptide content in the reaction solution with reversed-phase high pressure liquid chromatography (RP-HPLC). […] After the reaction was finished, the reaction system was centrifuged and the supernatant was removed, then the gel was washed repeatedly with washing buffer (10 mM PBS, pH 7.2, 150 mM NaCl) in a buchner funnel to get rid of the free peptides. Finally, equilibriation buffer (20 mmol/L citrate buffers, pH 5.0-5.5; or 20 mmol/L PBS buffers, pH 5.5-6.0) was used to suspend the gel to 1 mL, and after being degassed, the gel was slowly loaded into the glass column (Tricorn chromatogram column, Tricorn 5×5, GE healthcare). The column was first washed with equilibration buffer at 0.1 mL/min, and then the speed of the buffer was increased to 0.2 mL/min when the column pressure was stable, and the speed of the buffer was increased according to above operation till it reached 1.0 mL/min.
(1) Equilibration: the affinity column was washed with equilibration buffer until a stable baseline was reached. The flow rate of buffer was 0.5 mL/min, keep washing another five column volumes (CVs) before sample injection. […]

[2] = biological target: bovine serum albumin (BSA) (Bos taurus, UniProt P02769); assay: Affinity chromatography, BSA on peptide-coupled Thiopropyl Sepharose 6B column; assay type: binding
Sequence of bovine serum albumin (BSA) (P02769 25-607): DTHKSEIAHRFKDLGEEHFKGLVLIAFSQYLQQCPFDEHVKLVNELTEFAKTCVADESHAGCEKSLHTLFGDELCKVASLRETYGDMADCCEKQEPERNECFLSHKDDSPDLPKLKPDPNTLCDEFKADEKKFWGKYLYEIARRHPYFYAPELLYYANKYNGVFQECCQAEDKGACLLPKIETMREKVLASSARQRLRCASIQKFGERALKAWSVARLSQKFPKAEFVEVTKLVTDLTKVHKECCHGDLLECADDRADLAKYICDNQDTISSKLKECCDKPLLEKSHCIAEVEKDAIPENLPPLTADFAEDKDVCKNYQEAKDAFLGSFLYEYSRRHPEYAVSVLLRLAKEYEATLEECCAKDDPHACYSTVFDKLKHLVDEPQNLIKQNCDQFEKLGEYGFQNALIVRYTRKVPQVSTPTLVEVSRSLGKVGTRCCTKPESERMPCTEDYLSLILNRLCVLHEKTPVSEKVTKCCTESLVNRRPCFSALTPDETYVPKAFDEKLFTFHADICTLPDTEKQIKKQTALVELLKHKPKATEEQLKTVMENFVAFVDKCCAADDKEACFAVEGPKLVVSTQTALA
Description: as §1
(1) Equilibration: the affinity column was washed with equilibration buffer until a stable baseline was reached. The flow rate of buffer was 0.5 mL/min, keep washing another five column volumes (CVs) before sample injection.
(2) Sample injection: unless specifically stated, all protein samples were prepared by equilibration buffer. After sample injection, the column was equilibrated with 5-10 CVs of equilibration buffer (20 mmol/L citrate buffer, pH≤5.5; or 20 mmol/L PBS buffer, pH≥5.5). The sample loading amount was 100 μL, protein sample concentration was 1.0 mg/mL, and the flow rate was 0.5 mL/min.
(3) Elution: the column was washed with 5-10 CVs of elution buffer, and the flow rate was 0.8 mL/min.
(4) Storage: first 10 CVs of deionized water was used to wash the column, followed by another 10 CVs of 20% ethanol solution. Then the affinity gel was stored in this solution. All buffers should be filtered through a filter and degassed before use.

[3] = biological target: bovine serum albumin (bovine) (UniProt P02769); assay: affinity chromatography, peptide immobilized on Thiopropyl Sepharose 6B, pH 5.5
Sequence of bovine serum albumin (bovine) (P02769 25-607 limits assumed): as the sequence (P02769 25-607) above

[4] = biological target: bovine serum albumin (bovine) (UniProt P02769); assay: affinity chromatography, peptide immobilized on Thiopropyl Sepharose 6B, pH 6.0

binding of hIgG by immobilised peptide ligand ([1]; pH 5.0-6.0) | binding of BSA by immobilised peptide ligand ([2]; pH 5.5) | binding of hIgG by immobilised peptide ligand ([1]; pH 5.5-7.0) | binding of hIgG by immobilised peptide ligand ([1]; pH 6.0, 20 mM PBS) | binding of BSA by immobilised peptide ligand (fraction of BSA bound) ([2]; pH 6.0) | binding of BSA by immobilised peptide ligand ([2]; pH 6.5) | fraction of loaded protein bound (fraction of BSA) [3] | fraction of loaded protein bound (fraction of BSA) [4] | Sequence
strong binding | large binding |  |  |  |  |  |  | FYWHCLDE (not fully specified (residue 5)) [synthesized and immobilized on Thiopropyl Sepharose 6B]
 | about half | could bind a lot of hIgGs | could bind almost all hIgGs | ⅓ | trace |  |  | FYCHWALE (not fully specified (residue 3)) [synthesized and immobilized on Thiopropyl Sepharose 6B]
 |  |  |  |  |  | 0.5 | 0.333 | FYCHWALE peptide ligand
